Test results taken from article PMC3059353.

Substrate: Nc1ncnc2nc[nH]c12
Assay: steady-state kinetics of purified enzyme, GDH-coupled ammonia assay
Assay type: biochemical, Agrobacterium fabrum
Details: binuclear Mn2+ active site at binuclear metal center (adenine pose only modeled)

B1: adenine deaminase Atu4426 (Agrobacterium fabrum str. C58) (protein)
chain: MTAQIRLAEPADLNDDTLRARAVAAARGDQRFDVLITGGTLVDVVTGELRPADIGIVGALIASVHEPASRRDAAQVIDAGGAYVSPGLIDTHMHIESSMITPAAYAAAVVARGVTTIVWDPHEFGNVHGVDGVRWAAKAIENLPLRAILLAPSCVPSAPGLERGGADFDAAILADLLSWPEIGGIAEIMNMRGVIERDPRMSGIVQAGLAAEKLVCGHARGLKNADLNAFMAAGVSSDHELVSGEDLMAKLRAGLTIELRGSHDHLLPEFVAALNTLGHLPQTVTLCTDDVFPDDLLQGGGLDDVVRRLVRYGLKPEWALRAATLNAAQRLGRSDLGLIAAGRRADIVVFEDLNGFSARHVLASGRAVAEGGRMLVDIPTCDTTVLKGSMKLPLRMANDFLVKSQGAKVRLATIDRPRFTQWGETEADVKDGFVVPPEGATMISVTHRHGMAEPTTKTGFLTGWGRWNGAFATTVSHDSHNLTVFGGNAGDMALAANAVIGTGGGMAVASEGKVTAILPLPLSGLVSDAPLEEVARAFEDLREAVGKVVEWQPPYLVFKACFGATLACNIGPHQTDMGIADVLTGKVMESPVIEVLG
Km: 320 ± 40 µM
